The data set deals with Escherichia coli TOP10. Put plainly: shrunken log2 fold change of peptide-encoding DNA abundance (4.5 h post-induction vs induction); higher = less antimicrobial activity (less host growth inhibition). To be noted: time post-induction: 4.5 h; library: site-saturation at positions 5, 18, 19, 20.
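Note: peptides expressed intracellularly from a pBAD plasmid library in pooled LB shake-flask culture, induced with 0.3% L-arabinose, DNA abundance read by NGS, three biological replicates, DESeq2 with apeglm shrinkage.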

Regarding RRIRSRPPRLPRPRPRPGDPPRP, the “shrunken log2 fold change” value is 0.353.

Regarding RRIRIRPPRLPRPRPRPVLYPRP, the “shrunken log2 fold change” value is -0.598.

In the case of RRIRERPPRLPRPRPRPLGAPRP, the “shrunken log2 fold change” value was -0.159.

Regarding RRIRPRPPRLPRPRPRPEWSPRP, the “shrunken log2 fold change” value is -0.0838.

RRIRNRPPRLPRPRPRPYLQPRP: the “shrunken log2 fold change” value is -0.00906.

Take RRIRNRPPRLPRPRPRPMDLPRP: the “shrunken log2 fold change” value worked out at 0.00408.

RRIRARPPRLPRPRPRPVFGPRP: the “shrunken log2 fold change” value amounted to 0.353.

In the case of RRIRRRPPRLPRPRPRPGVCPRP, the “shrunken log2 fold change” value is 0.369.

On to RRIRSRPPRLPRPRPRPGFDPRP, for which the “shrunken log2 fold change” value came to 0.455.

On to RRIRRRPPRLPRPRPRPPHQPRP, for which the “shrunken log2 fold change” value turned out to be 1.32.

For the sequence RRIRHRPPRLPRPRPRPGSNPRP, the “shrunken log2 fold change” value was 0.0117.

On to RRIRDRPPRLPRPRPRPWIGPRP, for which the “shrunken log2 fold change” value was 0.0362.

Turning to RRIRERPPRLPRPRPRPRSEPRP, the “shrunken log2 fold change” value was -0.0574.

For the sequence RRIRGRPPRLPRPRPRPHTKPRP, the “shrunken log2 fold change” value turned out to be 0.104.

In the case of RRIRVRPPRLPRPRPRPFCVPRP, the “shrunken log2 fold change” value was -0.0102.

Consider RRIRCRPPRLPRPRPRPDWLPRP, for which the “shrunken log2 fold change” value was -0.0386.

As to RRIRGRPPRLPRPRPRPWHMPRP, the “shrunken log2 fold change” value was -0.345.

RRIRHRPPRLPRPRPRPGFWPRP: the “shrunken log2 fold change” value was found to be 0.0409.

As for RRIRKRPPRLPRPRPRPRPSPRP, the “shrunken log2 fold change” value was determined as 0.585.

Take RRIRGRPPRLPRPRPRPEWWPRP: the “shrunken log2 fold change” value stood at 0.77.

As for RRIRCRPPRLPRPRPRPWDYPRP, the “shrunken log2 fold change” value turned out to be 0.00188.

On to RRIRWRPPRLPRPRPRPCAFPRP, for which the “shrunken log2 fold change” value turned out to be 0.176.

On to RRIRCRPPRLPRPRPRPKRCPRP, for which the “shrunken log2 fold change” value was -0.00852.

Regarding RRIRFRPPRLPRPRPRPVQWPRP, the “shrunken log2 fold change” value worked out at 0.184.

Take RRIRDRPPRLPRPRPRPWKIPRP: the “shrunken log2 fold change” value was found to be 0.0112.

Take RRIRHRPPRLPRPRPRPRWMPRP: the “shrunken log2 fold change” value is -0.209.

In the case of RRIRYRPPRLPRPRPRPGSDPRP, the “shrunken log2 fold change” value was -0.898.

For the sequence RRIRLRPPRLPRPRPRPGWDPRP, the “shrunken log2 fold change” value worked out at 0.507.

Consider RRIRFRPPRLPRPRPRPKARPRP, for which the “shrunken log2 fold change” value stood at 0.297.

With RRIRTRPPRLPRPRPRPNGEPRP, the “shrunken log2 fold change” value is -0.12.

With RRIRRRPPRLPRPRPRPQRVPRP, the “shrunken log2 fold change” value came to 0.155.

Consider RRIRMRPPRLPRPRPRPFSMPRP, for which the “shrunken log2 fold change” value was -0.112.

As for RRIRIRPPRLPRPRPRPNEWPRP, the “shrunken log2 fold change” value was -0.00088.

As to RRIRCRPPRLPRPRPRPERHPRP, the “shrunken log2 fold change” value is -0.0311.

For the sequence RRIRWRPPRLPRPRPRPIMPPRP, the “shrunken log2 fold change” value was -0.0977.

Take RRIRARPPRLPRPRPRPFYAPRP: the “shrunken log2 fold change” value was -0.066.

As for RRIRIRPPRLPRPRPRPVQYPRP, the “shrunken log2 fold change” value was -0.106.

With RRIRRRPPRLPRPRPRPCGDPRP, the “shrunken log2 fold change” value came out at 0.478.

As to RRIRHRPPRLPRPRPRPGCPPRP, the “shrunken log2 fold change” value was -0.0112.

Regarding RRIRARPPRLPRPRPRPWKQPRP, the “shrunken log2 fold change” value was found to be 0.00355.

For the sequence RRIRQRPPRLPRPRPRPEAEPRP, the “shrunken log2 fold change” value was 0.302.

With RRIRYRPPRLPRPRPRPKVNPRP, the “shrunken log2 fold change” value is -0.599.

Take RRIRRRPPRLPRPRPRPFWWPRP: the “shrunken log2 fold change” value came to 0.528.

On to RRIRKRPPRLPRPRPRPNFCPRP, for which the “shrunken log2 fold change” value was -0.0549.

For RRIRQRPPRLPRPRPRPQGRPRP, the “shrunken log2 fold change” value was -0.0215.

RRIRRRPPRLPRPRPRPLFYPRP: the “shrunken log2 fold change” value is -0.248.

Turning to RRIRVRPPRLPRPRPRPRVTPRP, the “shrunken log2 fold change” value is 0.274.

As for RRIRKRPPRLPRPRPRPSWIPRP, the “shrunken log2 fold change” value was -0.487.

For RRIRIRPPRLPRPRPRPTWEPRP, the “shrunken log2 fold change” value was -0.212.

In the case of RRIRNRPPRLPRPRPRPWLHPRP, the “shrunken log2 fold change” value is -0.0277.

RRIRLRPPRLPRPRPRPWVCPRP: the “shrunken log2 fold change” value is -0.0462.

With RRIRPRPPRLPRPRPRPNICPRP, the “shrunken log2 fold change” value is -0.799.

On to RRIRYRPPRLPRPRPRPQDYPRP, for which the “shrunken log2 fold change” value is -0.236.

On to RRIRIRPPRLPRPRPRPAWSPRP, for which the “shrunken log2 fold change” value is -0.191.

Take RRIRTRPPRLPRPRPRPLEAPRP: the “shrunken log2 fold change” value worked out at 0.115.

Regarding RRIRSRPPRLPRPRPRPMHVPRP, the “shrunken log2 fold change” value was -0.00553.

In the case of RRIRGRPPRLPRPRPRPHCIPRP, the “shrunken log2 fold change” value was -0.0261.

Take RRIRTRPPRLPRPRPRPMEQPRP: the “shrunken log2 fold change” value was -0.189.

As to RRIRQRPPRLPRPRPRPLMQPRP, the “shrunken log2 fold change” value amounted to 0.0776.

As for RRIRVRPPRLPRPRPRPQFNPRP, the “shrunken log2 fold change” value is -0.389.

Turning to RRIRWRPPRLPRPRPRPTFAPRP, the “shrunken log2 fold change” value worked out at 0.327.

With RRIRSRPPRLPRPRPRPYAMPRP, the “shrunken log2 fold change” value was -0.909.

On to RRIRQRPPRLPRPRPRPDGKPRP, for which the “shrunken log2 fold change” value was determined as 0.0269.

For RRIRMRPPRLPRPRPRPIWGPRP, the “shrunken log2 fold change” value worked out at 0.0405.

Take RRIRMRPPRLPRPRPRPMRQPRP: the “shrunken log2 fold change” value was -0.0415.

As to RRIRIRPPRLPRPRPRPKDEPRP, the “shrunken log2 fold change” value was -0.00382.

Regarding RRIRGRPPRLPRPRPRPAAKPRP, the “shrunken log2 fold change” value is 1.02.

RRIRRRPPRLPRPRPRPIMVPRP: the “shrunken log2 fold change” value is -0.371.

Regarding RRIRDRPPRLPRPRPRPEKQPRP, the “shrunken log2 fold change” value stood at 0.0247.

For RRIRDRPPRLPRPRPRPCCMPRP, the “shrunken log2 fold change” value worked out at 0.125.

On to RRIRIRPPRLPRPRPRPFCDPRP, for which the “shrunken log2 fold change” value is -0.0745.

As for RRIRIRPPRLPRPRPRPFTTPRP, the “shrunken log2 fold change” value was -0.509.

Turning to RRIRIRPPRLPRPRPRPDQMPRP, the “shrunken log2 fold change” value is -0.393.

Regarding RRIRFRPPRLPRPRPRPPQRPRP, the “shrunken log2 fold change” value is 0.617.

Regarding RRIRDRPPRLPRPRPRPVSAPRP, the “shrunken log2 fold change” value came to 0.666.

For RRIRVRPPRLPRPRPRPARMPRP, the “shrunken log2 fold change” value stood at 0.425.

Take RRIRWRPPRLPRPRPRPGKRPRP: the “shrunken log2 fold change” value was 0.37.

Take RRIRFRPPRLPRPRPRPVCGPRP: the “shrunken log2 fold change” value turned out to be 0.277.

For the sequence RRIRQRPPRLPRPRPRPIRTPRP, the “shrunken log2 fold change” value is -0.0597.

For the sequence RRIRKRPPRLPRPRPRPRPMPRP, the “shrunken log2 fold change” value was found to be 0.585.

As to RRIRCRPPRLPRPRPRPVYFPRP, the “shrunken log2 fold change” value was -0.711.

As to RRIRGRPPRLPRPRPRPPRWPRP, the “shrunken log2 fold change” value worked out at 1.17.

For the sequence RRIRYRPPRLPRPRPRPRGVPRP, the “shrunken log2 fold change” value is 0.0913.

As for RRIRTRPPRLPRPRPRPTIIPRP, the “shrunken log2 fold change” value was -0.786.

With RRIRTRPPRLPRPRPRPRMIPRP, the “shrunken log2 fold change” value amounted to 0.113.

RRIRGRPPRLPRPRPRPRAIPRP: the “shrunken log2 fold change” value was found to be 0.733.

For RRIRLRPPRLPRPRPRPVRQPRP, the “shrunken log2 fold change” value amounted to 0.569.

On to RRIRARPPRLPRPRPRPMPWPRP, for which the “shrunken log2 fold change” value worked out at 0.483.

With RRIRARPPRLPRPRPRPFEFPRP, the “shrunken log2 fold change” value is 0.0786.

Regarding RRIRIRPPRLPRPRPRPSIKPRP, the “shrunken log2 fold change” value is -0.64.

For RRIRWRPPRLPRPRPRPDMNPRP, the “shrunken log2 fold change” value amounted to 0.143.

With RRIRRRPPRLPRPRPRPRRLPRP, the “shrunken log2 fold change” value amounted to 0.54.

On to RRIRVRPPRLPRPRPRPDIRPRP, for which the “shrunken log2 fold change” value is -0.179.

As to RRIRIRPPRLPRPRPRPMSFPRP, the “shrunken log2 fold change” value is -0.178.

RRIRWRPPRLPRPRPRPDWNPRP: the “shrunken log2 fold change” value amounted to 0.0393.

RRIRHRPPRLPRPRPRPFQGPRP: the “shrunken log2 fold change” value is -0.0278.

Regarding RRIRRRPPRLPRPRPRPFPDPRP, the “shrunken log2 fold change” value was determined as 0.255.

On to RRIRLRPPRLPRPRPRPAAKPRP, for which the “shrunken log2 fold change” value came to 0.602.

For RRIRSRPPRLPRPRPRPQNLPRP, the “shrunken log2 fold change” value is -0.394.

Take RRIRLRPPRLPRPRPRPNHMPRP: the “shrunken log2 fold change” value was -0.326.

As to RRIRVRPPRLPRPRPRPFSYPRP, the “shrunken log2 fold change” value was -0.012.

On to RRIRTRPPRLPRPRPRPFEIPRP, for which the “shrunken log2 fold change” value came to 0.0711.

On to RRIRIRPPRLPRPRPRPRFDPRP, for which the “shrunken log2 fold change” value is -0.282.

With RRIRLRPPRLPRPRPRPKYTPRP, the “shrunken log2 fold change” value is -0.61.

As to RRIRMRPPRLPRPRPRPYRRPRP, the “shrunken log2 fold change” value was 0.0224.

RRIRDRPPRLPRPRPRPYYIPRP: the “shrunken log2 fold change” value was -0.0955.

As for RRIRWRPPRLPRPRPRPRMMPRP, the “shrunken log2 fold change” value was 0.0684.

Consider RRIRMRPPRLPRPRPRPLYMPRP, for which the “shrunken log2 fold change” value is -0.222.

For RRIRCRPPRLPRPRPRPQTQPRP, the “shrunken log2 fold change” value is 0.308.

With RRIRWRPPRLPRPRPRPLDPPRP, the “shrunken log2 fold change” value was 0.0629.

RRIRDRPPRLPRPRPRPMATPRP: the “shrunken log2 fold change” value was found to be 0.415.

With RRIRARPPRLPRPRPRPRDTPRP, the “shrunken log2 fold change” value was 0.673.

For the sequence RRIRHRPPRLPRPRPRPEVWPRP, the “shrunken log2 fold change” value was found to be 0.714.

Turning to RRIRCRPPRLPRPRPRPRGNPRP, the “shrunken log2 fold change” value is 0.0747.

On to RRIRMRPPRLPRPRPRPPFCPRP, for which the “shrunken log2 fold change” value was found to be 0.0505.

With RRIRVRPPRLPRPRPRPWDMPRP, the “shrunken log2 fold change” value was -0.184.

Consider RRIRYRPPRLPRPRPRPYVEPRP, for which the “shrunken log2 fold change” value is -0.00822.

For the sequence RRIRARPPRLPRPRPRPQFYPRP, the “shrunken log2 fold change” value was -0.183.

For the sequence RRIRYRPPRLPRPRPRPIHIPRP, the “shrunken log2 fold change” value is -0.0433.

In the case of RRIRPRPPRLPRPRPRPAYVPRP, the “shrunken log2 fold change” value was -0.241.

For RRIRPRPPRLPRPRPRPSSVPRP, the “shrunken log2 fold change” value is 0.0854.

Consider RRIRTRPPRLPRPRPRPRETPRP, for which the “shrunken log2 fold change” value was 0.511.

For RRIRSRPPRLPRPRPRPFPKPRP, the “shrunken log2 fold change” value was 0.107.

As for RRIRERPPRLPRPRPRPCIYPRP, the “shrunken log2 fold change” value was -0.328.

As for RRIRVRPPRLPRPRPRPVRFPRP, the “shrunken log2 fold change” value is 0.391.
